Experimental data published in patent US20100081624A1, “SELECTIVE PEPTIDES THAT INHIBIT THE BIOLOGICAL ACTIVITY OF CALCINEURIN” (Consejo Superior de Investigaciones Cientficas, priority 2005, published 2010).

Biological target: Calcineurin (CN) of HeLa cells, endogenous
Assay: cell-based or functional assay

Row | percentage of cells with cytosolic NFATc2 staining after calcium ionophore | Substance
1 | 77% | GFP-LxVPc1 fusion protein
2 | 92% | GFP-VIVIT fusion protein
